Measured values published in PMC3823998, “Structural and Functional Characterization of the Redβ Recombinase from Bacteriophage λ” (PLoS ONE, 2013).
Changes are numbered by the printed parent chain.

B1: Redβ Y64A (natural protein, bacteriophage λ)
chain: GSHMSTALATLAGKLAERVGMDSVDPQELITTLRQTAFKGDASDAQFIALLIVANQYGLNPWTKEIAAFPDKQNGIVPVVGVDGWSRIINENQQFDGMDFEQDNESCTCRIYRKDRNHPICVTEWMDECRREPFKTREGREITGPWQSHPKRMLRHKAMIQCARLAFGFAGIYDKDEAERIVENTAYTAERQPERDITPVNDETMQEINTLLIALDKTWDDDLLPLCSQIFRRDIRASSELTQAEAVKALGFLKQKAAEQKVAA
notes: three residues (Gly-Ser-His) left before the initial methionine after thrombin removal of the tag; Redβ, recombinase of Enterobacteria phage λ, alanine substitution mutant; source: E. coli BL21(DE3), purified (HisTrap FF, thrombin digestion, HisTrap FF, Benzamidine FF); not shown: His6, N-terminal, cleaved
B2: Redβ R149A (natural protein, bacteriophage λ)
chain: B1 chain with A67Y, R152A
notes: three residues (Gly-Ser-His) left before the initial methionine after thrombin removal of the tag; Redβ, recombinase of Enterobacteria phage λ, alanine substitution mutant; By gel filtration complexes of approximately 3 subunits; source: E. coli BL21(DE3), purified (HisTrap FF, thrombin digestion, HisTrap FF, Benzamidine FF); not shown: His6, N-terminal, cleaved
B3: Redβ V79A (natural protein, bacteriophage λ)
chain: B1 chain with A67Y, V82A
notes: as for B1
B4: Redβ V77A (natural protein, bacteriophage λ)
chain: B1 chain with A67Y, V80A
notes: as for B1
B5: Redβ K132A (natural protein, bacteriophage λ)
chain: B1 chain with A67Y, K135A
notes: as for B1
B6: Redβ D80A (natural protein, bacteriophage λ)
chain: B1 chain with A67Y, D83A
notes: as for B1
B7: Redβ R152A (natural protein, bacteriophage λ)
chain: B1 chain with A67Y, R155A
notes: as for B1
B8: Redβ K69A (natural protein, bacteriophage λ)
chain: B1 chain with A67Y, K72A
notes: as for B1
B9: Redβ K148A (natural protein, bacteriophage λ)
chain: B1 chain with A67Y, K151A
notes: as for B2
B10: Redβ G78A (natural protein, bacteriophage λ)
chain: B1 chain with A67Y, G81A
notes: as for B1
B11: Redβ wild-type (WT) protein from bacteriophage λ (natural protein)
chain: B1 chain with A67Y
notes: three residues (Gly-Ser-His) left before the initial methionine after thrombin removal of the tag; Redβ, recombinase of Enterobacteria phage λ, bet gene amplified from phage λ genomic DNA, in pET14b; Forms multimers; subunit about 30 kDa; also called Redβ WT; source: E. coli BL21(DE3), purified (HisTrap FF, thrombin digestion, HisTrap FF, Benzamidine FF); not shown: His6, N-terminal, cleaved
B12: Redβ R161A (natural protein, bacteriophage λ)
chain: B1 chain with A67Y, R164A
notes: as for B1
B13: Redβ K172A (natural protein, bacteriophage λ)
chain: B1 chain with A67Y, K175A
notes: as for B1

Biological target: the molecule itself
Assay: SEC; Superdex 200 5/150 GL, 20 mM potassium phosphate pH 6.0, 10 mM MgCl2, 0.15 M NaCl; masses estimated from a calibration curve; self-association, no DNA

Protein | binding result | stoichiometry N [subunits]
B1 | binds | 
B2 |  | ~3
B3 | binds | 
B4 | binds | 
B5 | binds | 
B6 | binds | 
B7 | binds | 
B8 | binds | 
B9 |  | ~3
B10 | binds | 

Biological target: the molecule itself
Assay: native gel or EMSA; native PAGE, 10 µg protein per lane (20 µg in Figure S3), 5-20% gradient polyacrylamide gel, 25 mM Tris, 192 mM glycine, Coomassie stain; self-association, no DNA

Protein | binding result
B11 | binds
B12 | binds
B13 | binds
